Numbering of substitutions follows the chain as printed.
Key:
[1] = target: T1, H1MI15-I53_dn5B trimer (A/Michigan/45/2015 HA 1-676 Y98F no lkr dn5B.SA.WELQ-H) (influenza A virus H1/A/Michigan/45/2015 …); test: in vitro nanoparticle assembly
[2] = target: T1, H1MI15-I53_dn5B trimer …; test: in vitro nanoparticle assembly, SEC
[3] = target: T1, H1MI15-I53_dn5B trimer …; test: in vitro nanoparticle assembly, SEC and SDS-PAGE
[4] = target: T1, H1MI15-I53_dn5B trimer …; test: in vitro nanoparticle assembly; SEC, DLS, nsTEM

B1: I53_dn5A_2gly pentamer (designed binder)
chain: KYDGSKLRIGILHARGNAEIILELVLGALKRLQEFGVKRENIIIETVPGSFELPYGSKLFVEKQKRLGKPLDAIIPIGVLIRGNDTHFDYIADSTTHQLMKLNFELGIPVIFGVLTTNSTEQAEERAGTKAGNHGEDWGAAAVEMATKFNLEEQKLISEEDLHHHHHH
[1]
  binding result: binds

B2: I53_dn5A_1C5kPEG pentamer (designed binder)
chain: MGKYDGSKLRIGILHARGNAEIILALVLGALKRLQEFGVKRENIIIETVPGSFELPYGSKLFVEKQKRLGKPLDAIIPIGVLIRGSTPHFDYIADSTTHQLMKLNFELGIPVIFGVITADTCEQAEARAGLIEGKMHNHGEDWGAAAVEMATKFNGGWELQLEGSHHHHHH
[2]
  binding result: binds

B3: I53_dn5A_D120C pentamer coupled to 2 kDa PEG (designed binder)
chain: B2 chain
[3]
  binding result: binds

B4: I53_dn5A_D120C pentamer coupled to 1 kDa PEG (designed binder)
chain: B2 chain
[3]
  binding result: binds

B5: I53_dn5A_S84C_D120C pentamer coupled to 1 kDa PEG (designed binder)
chain: B2 chain with S86C
[4]
  binding result: binds

B6: I53_dn5A_2C2kPEG pentamer (designed binder)
chain: B2 chain with S86C
[4]
  binding result: binds

B7: I53_dn5Acp7 PAS pentamer (designed binder)
chain: MGSHHHHHHGSDEQAEERAGTKAGNHGEDWGAAAVEMATKFNGSGGSGKYDGSKLRIGILHARGNAEIILELVLGALKRLQEFGVKRENIIIETVPGSFELPYGSKLFVEKQKRLGKPLDAIIPIGVLIRGSTAHFDYIADSTTHQLMKLNFELGIPVIFGVLTTESGGSASPAAPAPASPAAPAPSAPAAASPAAPAPASPAAPAPSAPAAASPAAPAPASPAAPAPSAPAA
[4]
  binding result: binds
